One block for each substance: values may come before it.
How the values were obtained:
[1] = target: FcγRIIB-Fc fusion protein, soluble dimeric: extracellular domain of FcγRIIB fused to the hinge-CH2-CH3 domain of human IgG2 (human) (UniProt P31994); experiment: BIAcore, antibody captured on BSA-FITC
[2] = target: soluble monomeric FcγRIIIA, the extracellular region of FcγRIIIA joined to the linker-AVITAG sequence (UniProt P08637); experiment: BIAcore, antibody captured on BSA-FITC
[3] = target: FcγRIIB-Fc fusion protein, soluble dimeric: extracellular domain of FcγRIIB fused to the hinge-CH2-CH3 domain of human IgG2 (human) (UniProt P31994); experiment: ELISA
[4] = target: FcγRIIIA (UniProt P08637); experiment: ELISA
[5] = target: FcγRIIB-Fc fusion protein, soluble dimeric: extracellular domain of FcγRIIB fused to the hinge-CH2-CH3 domain of human IgG2 (human) (UniProt P31994); experiment: BIAcore
[6] = target: soluble monomeric FcγRIIIA, the extracellular region of FcγRIIIA joined to the linker-AVITAG sequence (UniProt P08637); experiment: BIAcore
[7] = target: FcγRIIIA 158V, soluble (UniProt P08637); experiment: BIAcore, 2B6 captured by soluble CD32B
[8] = target: FcγRIIIA 158F, soluble (UniProt P08637); experiment: BIAcore, 2B6 captured by soluble CD32B
[9] = target: soluble monomeric FcγRIIIA, the extracellular region of FcγRIIIA joined to the linker-AVITAG sequence (UniProt P08637); experiment: yeast display FACS; 0.1 µM biotinylated FcγRIIIA-linker-avitag chased with unlabeled monomer

FcγRIIIA, sequence (P08637 17-208 limits assumed): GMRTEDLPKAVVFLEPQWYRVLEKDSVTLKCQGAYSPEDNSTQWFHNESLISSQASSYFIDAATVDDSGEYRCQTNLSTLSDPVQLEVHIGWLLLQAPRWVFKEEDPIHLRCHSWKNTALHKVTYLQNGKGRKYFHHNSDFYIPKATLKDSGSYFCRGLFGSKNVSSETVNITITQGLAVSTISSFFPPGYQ
soluble monomeric FcγRIIIA, the extracellular region of FcγRIIIA joined to the linker-AVITAG sequence, sequence (P08637 17-208 limits assumed): as above
FcγRIIB-Fc fusion protein, soluble dimeric: extracellular domain of FcγRIIB fused to the hinge-CH2-CH3 domain of human IgG2 (human), sequence (P31994 43-217 limits assumed): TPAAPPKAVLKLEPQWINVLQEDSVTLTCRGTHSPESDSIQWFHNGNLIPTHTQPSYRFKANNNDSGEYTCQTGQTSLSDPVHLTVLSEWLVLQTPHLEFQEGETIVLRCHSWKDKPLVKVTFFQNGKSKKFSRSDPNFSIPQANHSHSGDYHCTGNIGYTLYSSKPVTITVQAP
FcγRIIIA 158F, soluble, sequence (P08637 17-208 limits assumed): as the sequence (P08637 17-208 limits assumed) above
FcγRIIIA 158V, soluble, sequence (P08637 17-208 F176V limits assumed): as the sequence (P08637 17-208 limits assumed) above, with F160V counted along it

Kd [1]: 61.4 nM | Kd [2]: 319 nM | ELISA, OD [3]: 0.4 OD | ELISA IIIA binding vs wt [4]: 1 | ELISA, OD [4]: 0.5 OD | Kd [5]: 94 nM | Kd [6]: 198 nM
Substance: ch4-4-20 antibody, wild-type Fc (chimeric anti-fluorescein, IgG1)

koff [7]: 0.192 s⁻¹ | koff [8]: 0.434 s⁻¹
Substance: ch-mAb 2B6 (chimeric anti-CD32B), wild-type IgG1 Fc (antibody)

ELISA binding increase vs wt [4]: 1 x | loss of cell staining after 1 minute with unlabeled FcγRIIIA [9]: 50%
Substance: ch4-4-20 P396L (from UniProt P01857 1-330) (antibody)

— patent publication US20080138349A1
